From patent publication US7550429B2, “Glycoproteins having lipid mobilising properties and therapeutic applications thereof” (Aston University, priority 1998, dated 2009) come the findings set out here.

Data set [1] relates to murine epididymal adipocytes. The experiment in a line: Lipolytic assay: glycerol release from isolated adipocytes. To be noted: for Stimulation of glycerol release (lipolysis): different doses, freshly isolated murine epididymal adipocytes, FIG. 9; for Lipid mobilizing activity, glycerol released: 5 μg human or 10 μg mouse LMF, incubated overnight at 4° C. with or without pAb 10 μg, mean±SEM, three determinations; for Specific activity: purified product after final stage HPLC Resource-iso. The data set is classed as cell-based, mouse. The protocol: Single cell suspensions of white adipocytes were prepared from finely minced epididymal fat pads of male BKW mice using collagenase digestion, substantially as described by S. A. Beck et al. (see above-mentioned reference 14). Samples to be assayed were incubated with 10^5-2×10^5 adipocytes (determined by means of a haemocytometer) for 2 h at 37° C. in 1 ml of Krebs-Ringer bicarbonate buffer, pH 7.2. The concentration of glycerol released was determined enzymatically by the method of Wieland as referred to above (see also GB2217330A). Control samples containing adipocytes alone were analyzed to determine the spontaneous glycerol release. Lipid mobilizing activity was expressed as μmol glycerol released/10^5 adipocytes/2 h.

Data set [2] relates to murine adipocyte plasma membrane adenylate cyclase. The experiment in a line: Adenylate cyclase assay with adipocyte plasma membranes. The data set is classed as biochemical, mouse. To be noted: GTP-dependent stimulation. The protocol: In a typical procedure white adipocytes were isolated from mouse epididymal fat pads as referred to above except that the cells were washed in 250 mM sucrose, 2 mM ethyleneglycol bis(β-aminoethylether)-N,N,N′,N′ (EGTA), 10 mM Tris-HCl (pH 7.4). Adipocytes were resuspended in 20 ml of the above buffer and homogenised by aspirating through a Swinny filter at least 10 times. The cell homogenate was then centrifuged at 300 g for 5 min, the fat cake removed from the surface and the remaining pellet and infranatant transferred to clean tubes. These were centrifuged at 30,000 g for 1 h at 4° C. and the membrane pellet formed was resuspended in the sucrose buffer (200 to 400 μl). Plasma membranes were separated from other organelle membranes on a self-forming gradient of Percoll™ colloidial silica particles. […]
An adenylate cyclase assay used was based on that developed by Salomon et al. (reference 16). […] Background binding was determined by running samples without [α-^32P] […]
Samples containing labelled nucleotides were diluted to 1 ml with water and loaded onto Dowex™ 50W8-400 ion-exchange columns primed with 10 ml of water. […] The radioactivity was determined using a Tri-carb™ 2000A scintillation analyser.

For data set [3], the system named is ex-breeder male NMRI mice. The experiment in a line: In vivo fat depletion, iv LMF in ex-breeder male NMRI mice. Details: species or system mouse. The protocol:
(§1) Non-esterified fatty acids (NEFA) were determined using a Wako-ASC-ACOD kit (Wako Chemical GmbH, Neuss, Germany). Triglycerides were determined using a Triglyceride kit (Sigma Chemical Co., Poole, United Kingdom) and 3-hydroxybutyrate by a quantitative enzymatic determination kit (Sigma). Glucose was measured using a glucose analyser (Beckman, Irvine, Calif.) and glycerol was determined enzymatically using the method of Wieland as described in “Methods of Enzymatic Analysis” (Ed. Bergmeyer, H. U.) Vol. 3, pp 1404-1409, published by Academic Press, London (1974) (reference 13).
FIG. 10 is a diagram showing change in body weight of ex-breeder male NMRI mice (30-40 g) produced by intravenous (iv) administration of LMF (8 μg) isolated from human urine as described in Example 2 (o) and of control mice administered PBS by iv injection (x).
In order to determine if the purified LMF isolated from human urine as in Example 2 was capable of fat depletion in vivo a sample of this LMF material ([…]) was injected into male ex breeder NMRI mice over a 72 h period. The LMF was injected at times 0, 17, 24, 41, 48, 62 and 72 hours and control mice were similarly injected with phosphate-buffered saline (PBS) at the same time points. The animals were killed at 89 h and the body composition and serum metabolite levels were determined. […] Changes in the body composition and serum metabolic levels are summarised in Table 5 and it will be seen that total body weight decreased by 3.6 g during the overall 89 h period of the experiment without change in food and water intake. […] Despite the fat mobilisation there were significant reductions in the serum concentrations of non-esterified fatty acids (NEFA), glycerol and glucose in mice receiving LMF.

For a further data set, the system named is ob/ob mice. Put plainly: In vivo effect of iv LMF in obese ob/ob mice. Details: species or system mouse. The protocol: as §1
FIG. 11 is a diagram similar to FIG. 10 showing change in body weight of ob/ob mice produced by iv administration of LMF (35 μg) (o) isolated from human urine as described in Example 2 and of control mice (x) administered PBS by iv injection. LMF was injected at times 0, 16, 24, 40, 48, 64, 72, 90, 96, 113, 120, 137 and 144 h; PBS was injected at the same time points. The animals were killed 160 h after the first injection. Results are expressed as mean±SEM for 5 animals per group.
As shown in FIG. 11 and by the data in Table 6, intravenous administration to obese ob/ob mice of LMF (35 μg) isolated from human urine produced a similar result. There was a decrease in total body weight which became significant within 24 h of the first injection and remained below that of the control group over the 160 h of the experiment.

[4] abbreviates: LMF 8 μg iv over 72 h, killed at 89 h.
Setting [5] is: LMF 35 μg iv, 160 h after first injection.

B1: Zn-α2-glycoprotein (protein, listed as Homo sapiens)
chain: QENQDGRYSLTYIYTGLSKHVEDVPAFQALGSLNDLQFFRYNSKDRKSQPMGLWRQVEGMEDWKEDSQLQKAREDMETLKDIVEYYNDSNGSHVLQGRFGCEIENNRSSGAFWKYYYDGKDYIEFNKEIPAWVPFDPAAQITKQKWEAEPVYVQRAKAYLEEECPATLRKYLKYSKNILDRQDPPSVVVTSHQAPGEKKKLKCLAYDFYPGKIDVHWTRAGQVQEPELRGDVLHNGNGTYQSWVVVAVPPQDTAPYSCHVQHSSLAQPLVVPWEAS
notes: Zn-α2-glycoprotein purified about 670-fold from fresh human plasma by the method of Ohkubo et al
Take B1: the “Stimulation of glycerol release (lipolysis)” value in data set [1] is on record as “stimulated glycerol release with a comparable dose-response profile”. Besides, in data set [2], the “GTP concentration at maximal stimulation of adenylate cyclase” value amounted to 0.1 µM.

B2: Human LMF: 43 kDa glycoprotein lipid mobilising factor purified from urine of cachectic cancer patients (Example 2); Zn-α2-glycoprotein type (protein, UniProt P25311 21-298, looked up)
Zinc-alpha-2-glycoprotein: QENQDGRYSLTYIYTGLSKHVEDVPAFQALGSLNDLQFFRYNSKDRKSQPMGLWRQVEGMEDWKQDSQLQKAREDIFMETLKDIVEYYNDSNGSHVLQGRFGCEIENNRSSGAFWKYYYDGKDYIEFNKEIPAWVPFDPAAQITKQKWEAEPVYVQRAKAYLEEECPATLRKYLKYSKNILDRQDPPSVVVTSHQAPGEKKKLKCLAYDFYPGKIDVHWTRAGEVQEPELRGDVLHNGNGTYQSWVVVAVPPQDTAPYSCHVQHSSLAQPLVVPWEAS
In data set [3] (LMF 8 μg iv over 72 h), B2 displayed a Food intake of 8.0 ± 0.2 g/day and a Water intake of 4.4 ± 0.4 mL/day. Further, in data set [3] (setting [4]), the “Body composition: Fat” value was 3.4 ± 0.4 g, the “Body composition: Non Fat” value is on record as 9.6 ± 0.9 g, the “Body composition: Water” value is reported as 18.3 ± 0.8 g and the “Serum Glucose” value was determined as 186 ± 0.08 mg/100 ml. For the same molecule, in data set [3] (setting [4]), the “Serum Glycerol” value is given as 6.73 ± 0.45 mM and the “Serum NEFA” value came to 0.95 ± 0.03 mEq/l. The Final body weight in data set [3] (LMF 8 μg iv, 7 injections over 72 h, killed at 89 h, mean±SEM, 5 mice) came to 31.6 ± 2.2 g. In data set [3] (LMF iv, FIG. 10), the “Time until body weight significantly lower than PBS treated controls” value is on record as not above 41 h. The “Reduction in body fat content” value in data set [3] (body composition analysis at 89 h) was determined as 42%. The “Decrease in total body weight” value in data set [3] (overall 89 h period, no change in food and water intake) came to 3.6 g. This molecule also returned a Final body weight in the data set with ob/ob mice (LMF 35 μg iv, 13 injections over 144 h, 160 h after first injection, mean±SEM, 5 mice) of 69.5 ± 4.3 g. Also, in the data set on ob/ob mice (setting [5]), the “Body composition: Fat” value is 30.6 ± 0.7%, the “Body composition: Non Fat” value is recorded as 17.4 ± 1.0%, the “Body composition: Water” value is listed as 53.7 ± 1.1% and the Glucose is listed as 260 ± 12 mg/100 ml. Moreover, in the data set on ob/ob mice (setting [5]), the Oxygen uptake is on record as 0.55 ± 0.07 μl/mgBAT/h, the “Serum 3-Hydroxybutyrate” value was 0.44 ± 0.01 mM, the “Serum Glycerol” value turned out to be 5.31 ± 0.45 mM and the “Serum NEFA” value stood at 1.45 ± 0.45 mEq/l. Also, the Carcass fat in the data set with ob/ob mice (LMF 35 μg iv, body composition analysis at 160 h) amounted to 21.09 ± 0.99 g. Further, the “Time until decrease in total body weight became significant” value with ob/ob mice (after the first injection, FIG. 11) is given as not above 24 h. In the data set with ob/ob mice (baseline before first injection), this molecule gave an Initial body weight of 67.9 ± 2.9 g. Moreover, in data set [1], the “Lipid mobilizing activity, glycerol released” value is 0.0062 ± 0.0002 μmole glycerol/10^5 adipocytes/2 h; the “Stimulation of glycerol release (lipolysis)” value is on record as “stimulated glycerol release with a comparable dose-response profile”; the Specific activity was 164.3 μmol/10^5 adipocytes/mg protein. The “Effect of α-chymotrypsin digestion on in vitro biological activity” value in data set [1] (α-chymotrypsin digestion) is given as “chymotrypsin destroyed the in vitro biological activity”. For the same molecule, the “GTP concentration at maximal stimulation of adenylate cyclase” value in data set [2] stood at 0.1 µM.

B3: Mouse LMF: 43 kDa glycoprotein lipid mobilising factor purified from murine adenocarcinoma MAC16 (Example 1) (protein, UniProt Q64726 18-307, looked up)
Zinc-alpha-2-glycoprotein: QETGSYYLTFLYTGLSRPSKGFPRFQATAFLNDQAFFHYNSNSGKAEPVGPWSQVEGMEDWEKESQLQRAREEIFLVTLKDIMDYYKDTTGSHTFQGMFGCEITNNRSSGAVWRYAYDGEDFIEFNKEIPAWIPLDPAAANTKLKWEAEKVYVQRAKAYLEEECPEMLKRYLNYSRSHLDRIDPPTVTITSRVIPGGNRIFKCLAYGFYPQRISLHWNKANKKLAFEPERGVFPNGNGTYLSWAEVEVSPQDIDPFFCLIDHRGFSQSLSVQWDRTRKVKDENNVVAQPQ
For B3, in data set [1], the “Lipid mobilizing activity, glycerol released” value is 0.0977 ± 0.02 μmole glycerol/10^5 adipocytes/2 h and the Specific activity was 50 μmol/10^5 adipocytes/mg protein.
